The data set “cross-linking” deals with the molecule itself. The data set can be described thus: cross-linking.
The data set “solution NMR” deals with the molecule itself. The data set can be described thus: solution NMR.

Substitutions are numbered along the chain they refer to. Names and notes keep the numbering of the source.

B1: EmrE S107C mutant devoid of wild-type Cys residues (C39S, C41S, C95S, S107C) (natural protein)
chain: MNPYIYLGGAILAEVIGTTLMKFSEGFTRLWPSVGTIISYSASFWLLAQTLAYIPTGIAYAIWSGVGIVLISLLSWGFFGQRLDLPAIIGMMLISAGVLIINLLSRCTPH
As to B1, the stoichiometry N – broadly, the number of molecules, sites or subunits per partner or assembly – in the data set “cross-linking” was 2.

B2: EmrE (wild type) (natural protein)
chain: B1 chain with S39C, S41C, S95C, C107S
As for B2, the binding result in “solution NMR” is “binds”.
